One may read the Kd as the concentration at which binding is half-saturated. A higher Kd goes with a looser complex. The IC50 is the concentration needed to halve the response being measured.

Kd and IC50 data for six sequences are collected here from the Immune Epitope Database (IEDB).

Test [1] concerns the target HLA-B*15:01. The experiment in a line: IEDB peptide-MHC binding, purified MHC/competitive/fluorescence; filed as Kd, often an IC50 or EC50 that approximates it; ≥ and ≤ were set here for values at or beyond the usual limits of such assays.
The target of test [2] is HLA-B*57:01. Described as above. The note with it: source organism: Vibrio vulnificus CMCP6.
Test [3] deals with HLA-A*02:03. The test is described as above. The note with it: source organism: Vibrio vulnificus CMCP6.
In test [4] the target is HLA-A*02:06. Described as above. The following applies: source organism: Vibrio vulnificus CMCP6.
Test [5] deals with HLA-A*02:01. The description is as above. The following applies: source organism: Vibrio vulnificus CMCP6.
The target in test [6] is HLA-A*11:01. The description is as above. The note with it: source organism: Vibrio vulnificus CMCP6.
The target in test [7] is HLA-B*15:17. Described as above. The note with it: source organism: Vibrio vulnificus CMCP6.
In test [8] the target is HLA-B*27:05. As to the kind of experiment: IEDB peptide-MHC binding, purified MHC/direct/fluorescence; filed as Kd, often an IC50 or EC50 that approximates it; ≥ and ≤ were set here for values at or beyond the usual limits of such assays.
Test [9] deals with HLA-B*58:01. The test is described as above.
For test [10], the target named is HLA-A*69:01. Described as above.
In test [11] the target is HLA-B*08:02. The description is as above. The note with it: source organism: Vibrio vulnificus CMCP6.
Test [12] deals with HLA-A*01:01. Described as above.
The target in test [13] is HLA-B*15:09. The description is as above. The following applies: source organism: Vibrio vulnificus CMCP6.
Test [14] addresses HLA-A*26:03. Described as above. The following applies: source organism: Vibrio vulnificus CMCP6.
Test [15] deals with HLA-B*48:01. The description is as above.
The target in test [16] is HLA-C*12:03. The description is as above.
In test [17] the target is HLA-A*31:01. The description is as above.
In test [18] the target is HLA-A*26:02. The test is described as above. The note with it: source organism: Vibrio vulnificus CMCP6.
Test [19] has as its target HLA-B*40:01. The description is as above.
For test [20], the target named is HLA-B*08:01. The description is as above. The following applies: source organism: Vibrio vulnificus CMCP6.
The target in test [21] is HLA-B*46:01. Described as above.
Test [22] addresses HLA-B*38:01. Described as above.
The target of test [23] is HLA-B*08:01. The experiment in a line: IEDB peptide-MHC binding, purified MHC/competitive/fluorescence; filed as Kd, often an IC50 or EC50 that approximates it; ≥ and ≤ were set here for values at or beyond the usual limits of such assays. The note with it: source organism: Vibrio cholerae V52.
Test [24] deals with HLA-A*30:01. The test is described as above. The following applies: source organism: Vibrio cholerae V52.
Test [25] addresses HLA-B*51:01. The experiment in a line: IEDB peptide-MHC binding, purified MHC/direct/fluorescence; filed as Kd, often an IC50 or EC50 that approximates it; ≥ and ≤ were set here for values at or beyond the usual limits of such assays. The following applies: source organism: Vibrio cholerae.
The target in test [26] is HLA-B*15:01. The test is described as above. The following applies: source organism: Vibrio cholerae.
Test [27] deals with HLA-B*57:01. The description is as above. The following applies: source organism: Vibrio cholerae.
Test [28] concerns the target HLA-B*39:01. The description is as above. The following applies: source organism: Vibrio cholerae V52.
Test [29] concerns the target HLA-B*18:01. Described as above. The note with it: source organism: Vibrio cholerae.
For test [30], the target named is HLA-A*02:01. The description is as above. The note with it: source organism: Vibrio cholerae.
The target in test [31] is HLA-B*07:02. The test is described as above. The following applies: source organism: Vibrio cholerae.
Test [32] concerns the target HLA-A*26:01. The test is described as above. The following applies: source organism: Vibrio cholerae V52.
Test [33] deals with HLA-A*11:01. The test is described as above. The following applies: source organism: Vibrio cholerae.
For test [34], the target named is HLA-A*03:01. The description is as above. The note with it: source organism: Vibrio cholerae.
The target in test [35] is HLA-B*15:17. The test is described as above. The note with it: source organism: Vibrio cholerae.
The target of test [36] is HLA-B*15:42. As to the kind of experiment: IEDB peptide-MHC binding, purified MHC/competitive/fluorescence; filed as Kd, often an IC50 or EC50 that approximates it; ≥ and ≤ were set here for values at or beyond the usual limits of such assays. The following applies: source organism: Gorilla gorilla.
In test [37] the target is HLA-B*83:01. The test is described as above. The following applies: source organism: Gorilla gorilla.
Test [38] concerns the target HLA-B*45:06. The description is as above. The note with it: source organism: Gorilla gorilla.
For test [39], the target named is HLA-C*14:02. The description is as above. The following applies: source organism: Gorilla gorilla.
The target in test [40] is HLA-A*02:01. As to the kind of experiment: IEDB peptide-MHC binding, cellular MHC/competitive/fluorescence; ≥ and ≤ were set here for values at or beyond the usual limits of such assays. The note with it: source organism: Homo sapiens.
The target of test [41] is HLA-B*35:01. The experiment in a line: IEDB peptide-MHC binding, purified MHC/competitive/fluorescence; filed as Kd, often an IC50 or EC50 that approximates it; ≥ and ≤ were set here for values at or beyond the usual limits of such assays.
The mark [42] stands for this setting: source organism: Vibrio vulnificus CMCP6.
Where [43] appears, read: source organism: Vibrio vulnificus.
The mark [44] stands for this setting: source organism: Vibrio cholerae.
The mark [45] stands for this setting: source organism: Bacillus anthracis str. A0488.
The mark [46] stands for this setting: source organism: Desulfitobacterium hafniense DCB-2.

Regarding VTFFCVMTY, the dissociation constant (Kd) in test [1] (setting [42]) is 2.23 µM; in test [2], 1.75 µM; in test [3] it was no less than 20 µM; in test [4], 0.478 µM; in test [5] it was 2.1 µM; in test [6] it was 0.225 µM. Besides, the Kd in test [7] was 0.0151 µM; in test [8] (setting [43]), no less than 20 µM; in test [9] (setting [42]), 0.111 µM; in test [10] (setting [43]), no less than 20 µM; in test [11], no less than 20 µM; in test [12] (setting [43]) it was 0.993 µM. Also, the Kd is no less than 20 µM in test [13]; no less than 20 µM in test [14]; no less than 20 µM in test [15] (setting [43]); 0.043 µM in test [16] (setting [42]); no less than 20 µM in [17] (setting [43]); 1.78 µM in test [18]. Further, the Kd in [19] (setting [43]), in [20], in [21] (setting [43]) and in test [22] (setting [42]) was no less than 20 µM throughout.

Consider IVKQGRDAL, for which the Kd in [23] was 1.46 µM; in test [24], no less than 20 µM; in [25], no less than 20 µM; in test [8] (setting [44]), no less than 20 µM; in test [9] (setting [44]) it was no less than 20 µM; in test [26], 1.34 µM. Besides, the dissociation constant Kd in [10] (setting [44]), in test [27], in [28], in [12] (setting [44]), in [29] and in test [15] (setting [44]) was no less than 20 µM in each case. Moreover, the Kd is no less than 20 µM in [17] (setting [44]); no less than 20 µM in [30]; 0.226 µM in test [31]; no less than 20 µM in test [32]; no less than 20 µM in test [19] (setting [44]); no less than 20 µM in [21] (setting [44]). The Kd in test [33], in test [34], in test [35] and in test [22] (source organism: Vibrio cholerae V52) was no less than 20 µM in each case.

With VMAPRTLVL, the Kd was no less than 5 µM in test [36]; no less than 5 µM in [37]; no less than 5 µM in test [38]; 0.0772 µM in [39]; 2.28 µM in [16] (source organism: Gorilla gorilla). Moreover, the IC50 in [40] was determined as 10.5 µM.

With WCMQHLPSY, the values for the Kd in [1] (setting [45]) and in [41] (setting [45]) were 0.102 µM and 0.004 µM, respectively.

As for FAGDLYRMY, the Kd in [1] (setting [46]) was determined as 0.806 µM; in test [41] (setting [46]) it was 0.0071 µM.

SLSEKTVLL had an IC50 in test [40] of 21 µM.
